Results as given in the supplement of paper PMC10567573.
± gives the standard deviation.

Test: protein stability index of a GFP-peptide fusion (GPS, HEK-293T) (PSI 1-6); higher = more stable
[1] = treatment: DMSO, c terminus: a fixed tail appended
[2] = treatment: MLN4924 1 uM, 8 h, c terminus: a fixed tail appended
[3] = treatment: DMSO, c terminus: native
[4] = treatment: MLN4924 1 uM, 8 h, c terminus: native
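Further: 24-mer peptide tiles fused after GFP, lentivirally expressed, FACS-sorted into six equal bins by GFP/DsRed ratio, decoded by Illumina sequencing, PSI is the read-weighted mean bin number.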

Sequence	protein stability index [1]	protein stability index [2]	protein stability index [3]	protein stability index [4]
LEGVVSQIDAVGSKLKMLERKGWL [PKD2L1]	2.63 ± 0.37	2.77 ± 0.24		
EEAVPEEEGPTVVLNPHPSLGYKE [CHGA]	5.33 ± 0.28	5.32 ± 0.38		
SCYKGHREIARYLLEQGAQVNRRS [FEM1A]	2.93 ± 0.14	3.11 ± 0.48		
ISRAQYNALTLTFQRAMHDYNQAE [STX11]	2.21 ± 0.14	2.35 ± 0.14		
ESQLDPSNCLGIRDFAETHNCVDL [KLHL12]	3.9 ± 0.45	4.26 ± 0.49		
SDSAPRNKISRFQAPISAPEYTYG [MFF]	3.59 ± 0.71	3.56 ± 0.21		
NLDEEMKKIRQVIRKYNYVAMDTE [CNOT7]	3.47 ± 0.14	3.38 ± 0.22		
QSSGLIRHQRIHTGERPYECNECG [ZSCAN9]	4.03 ± 0.36	4 ± 0.49		
LYAVGGQDGVSCLNIVERYDPKEN [KLHL20]	3.89 ± 0.31	3.96 ± 0.27		
AGKEAMTSDGYTALHLAARNGHLA [RIPK4]	3.43 ± 0.69	3.85 ± 0.36		
PENILLDRDGHIKLTDFGFAKKLV [PRKX]	2.9 ± 0.17	3.08 ± 0.072		
FLHSLVQFLFIYQLPFCGPNVIDN [OR4A15]	2.89 ± 0.32	3.48 ± 0.26		
AGAGGSGSRISVSRSTSFRGGMGS [KRT18]	3.88 ± 0.21	3.79 ± 0.28		
LLLNNANPNLSNRRGSTPLHMAVE [RIPK4]	2.41 ± 0.25	2.73 ± 0.43		
LKDLLLQVGRGLRYIHSMSLVHMD [WEE1]	2.64 ± 0.74	2.85 ± 0.69		
YPALASKNGKKWEILNFNQYYEAC [ACSBG2]	2.68 ± 0.26	2.81 ± 0.41		
FKEVKEKFKGWVSYSTSEQAELSY [DLC1]	3.13 ± 0.27	2.87 ± 0.31		
GTEQSRGLGHGSTSRGGPWVGTGL [CPOX]	3.27 ± 0.84	3.6 ± 0.26		
VTDKTLLICKYDFIMLSCVQLQRI [TPRG1]	3.35 ± 0.84	3.48 ± 0.72		
RQVEKRRNSGPVVEKLKQMQEFFG [MMP1]	3.04 ± 0.57	3.07 ± 0.14		
KVLQLTVRCEALTGELETLKERCA [CCDC89]	2.28 ± 0.21	2.45 ± 0.27		
SFVDKLLDLMPRLMTSKPAEVVKI [INTS4]	2.73 ± 0.64	2.61 ± 0.63		
RKLFEVESVTHHDYRMELAQAGTP [SPAG8]	3.64 ± 0.33	3.57 ± 0.21		

Sequence	protein stability index [1]	protein stability index [2]	protein stability index [3]	protein stability index [4]
AAGIGKLSTADGKAFADPEVLRRL [ANKRD17]	4.2 ± 0.15	4.19 ± 0.41		
INNGDFEAYTKICDPGLTAFEPEA [CAMK2D]	4.08 ± 0.41	4.36 ± 0.18		
SPFSPGLFHRLDEDWDSALFAELG [ATF6]	2.6 ± 0.28	2.44 ± 0.16		
CLRRCKRTLPAFQVPYPPRQLLRD [P3H4]	2.16 ± 0.24	2.27 ± 0.24		
PYLLGPDKNLTEREVFNEIYPVWT [SLC19A2]	2.35 ± 0.24	2.71 ± 0.26		
EPTETLLSEKEINAREESLVEELS [BCL2L13]	5.46 ± 0.12	5.55 ± 0.26		
QILGQTLKASMRELGLLIFFLFIG [KCNA1]	2.67 ± 0.67	2.45 ± 0.51		
TSEGTTLSGVDLELVGSGYRMSLV [FCHO1]	2.14 ± 0.48	2.29 ± 0.29		
LGSFESPANSETSDLTLYLVVAVA [PCDHGA10]	2.66 ± 0.87	2.67 ± 0.48		
LGPAFRGLKGRTLYPAVSAVWGQC [SPSB2]	2.17 ± 0.22	2.16 ± 0.18		
ELQRQKEAEKLERQLALPATEQAA [NOP53]	5.14 ± 0.34	5.42 ± 0.31		
EGPMEEEEAQPMAAPEGKRSLANG [EID1]	5.66 ± 0.25	5.58 ± 0.21		
VNAKDNMWLTPLHRAVASRSEEAV [ANKRD44]	4.07 ± 0.29	4.02 ± 0.44		
KGGEERKAEGGEEDSLGCLTADTK [IRX6]	5.44 ± 0.25	5.52 ± 0.16		
GAQPCLLLPIVPLSWLVWLLLLLL [ADAMTS4]		2.67 ± 1.3		
QAQGQLRELLDRAMREAIQSYPSQ [SOAT2]	3.01 ± 0.31	3.11 ± 0.31		
AKSVLKERGLKKIRLGIEGYPTYK [BTBD10]	2.79 ± 0.23	2.8 ± 0.44		
TWGQIKKTTQEAEKLLERQGQAKT [CDK11A]	4.98 ± 0.11	5.01 ± 0.072		
TMPLYLEDDIRPDIKDDIYDPTYK [SCD]	4.46 ± 0.3	4.68 ± 0.17		
EARICRLLKHSNIVRLHDSISEEG [CAMK2B]	3.32 ± 0.41	3.46 ± 0.28		
ENLLLASKLKGAAVKLADFGLAIE [CAMK2A]	2.35 ± 0.25	2.7 ± 0.29		
KLKDLSTVTSLQVPVLKPMDLMVE [PPP2R2C]	3.33 ± 0.31	3.43 ± 0.27		
RPEEEEDELAHRCSSFMAPPVTDL [CPOX]	5.05 ± 0.26	5.03 ± 0.18		

Sequence	protein stability index [1]	protein stability index [2]	protein stability index [3]	protein stability index [4]
SFVVLLYILDNETNFVVQVSVFIG [CLPTM1]	3.15 ± 0.41	3.39 ± 0.56		
KRRANQKSSAQGPIPWFLPESRSL [PPEF2]	3.49 ± 0.23	3.57 ± 0.16		
QRRHGWNPKDCSENIEVKEGGLYF [SPSB2]	3.45 ± 0.31	3.76 ± 0.46		
VSNTPLRTVDGSPMMKAAMYSVEI [PALM]	2.27 ± 0.4	2.42 ± 0.17		
IGNLVKILHGTRGELLLDVAWHPV [RBBP5]	2.72 ± 0.41	2.65 ± 0.43		
PGYLVGRNNANGVDLNRNFPDLNT [CPN1]	3.73 ± 0.36	3.67 ± 0.48		
PSDLDLVMSEGLGMRYAFIGPLET [CRYL1]	2.46 ± 0.63	2.6 ± 0.39		
WKERDEYITKVSEEVTRLGAQVKE [TRIM15]	4.69 ± 0.23	4.22 ± 0.42		
GVCYSESQSSASQPRLSYAEMAED [CLCN6]	5.11 ± 0.23	5.28 ± 0.31		
DNEGNSALHIIVQYNRPISDFLTL [FEM1B]	3.06 ± 0.9	2.33 ± 0.17		
TSSSTSGSSDKVYAHQMVRTDSRE [MLH1]	5.08 ± 0.17	5.1 ± 0.17		
ADRIIEVDMECQTDAFLDRPPTPL [RSPH3]	4.3 ± 0.29	4.25 ± 0.28		
PPELNYGATGECQNFLDPGYPLPK [ZNF449]	4.61 ± 0.2	4.67 ± 0.13		
DSVLERWVNDPQRMDKRTLALLVL [GOLPH3L]	2.21 ± 0.28	2.31 ± 0.28		
KAQLLEQAQGQLRELLDRAMREAI [SOAT2]	2.29 ± 0.33	2.37 ± 0.42		
SSSSRVLLRQQLMRAQAQEQERRE [TFE3]	4.87 ± 0.3	5.02 ± 0.22		
MVEADHPGKLFIGGLNRETNEKML [RBMY1A1]	3.91 ± 0.23	3.92 ± 0.093		
SAASGARFPLDSAQDPDVGTNTVS [PCDHGC5]	5.39 ± 0.12	5.2 ± 0.31		
QKEDVKPYQVNGVNPAYPESRYTS [ETS1]	4.53 ± 0.18	4.48 ± 0.15		
KKVLKKMLKFLAKGEVPKGSCEDE [ATE1]	2.11 ± 0.25	2.25 ± 0.47		
LRTLFTDLFEKKGYTFDYAYDWVG [CSNK1G1]	2.2 ± 0.21	2.12 ± 0.39		
EFLELSPQKLKEVISLEKLNVGNE [GAN]	3.44 ± 0.61	3.09 ± 0.51		
PACHSFNRAIHKKAKGTEAEEEY [FBXO34]			5.25 ± 0.49	5.41 ± 0.34

Sequence	protein stability index [1]	protein stability index [2]	protein stability index [3]	protein stability index [4]
ARMLREYQELMSLKLALDMEIATY [KRT71]	2.19 ± 0.62	2.44 ± 0.21		
RRSFLIEHQRSHTGERPHQCIECG [ZSCAN9]	3.3 ± 0.39	3.8 ± 0.35		
HCIQQILEAVLHCHQMGVVHRDLK [CAMK2B]	2.6 ± 0.7	2.95 ± 0.37		
GLFFPPQLNGTANDTAGPELPDPL [NFE2L1]	4.29 ± 0.27	4.45 ± 0.23		
YEDGTELTEDYFPSVPDNAELVLL [DFFB]	3.52 ± 0.36	3.7 ± 0.23		
IRMIQEEKESTELRAEEIETRVTS [PPFIA4]	5.22 ± 0.33	5.21 ± 0.38		
EASRLNIERMKQIYQQLSRYRGLG [CRY1]	2.48 ± 0.26	2.37 ± 0.3		
CTDKENALKLFPVQPCSAVHLLLK [FAM189A2]	2.58 ± 0.23	2.7 ± 0.43		
LKVAAESCKADVVELLLSHADCDR [FEM1B]	3.16 ± 0.19	3.13 ± 0.36		
SPCLPEAEAMFAINADGVGDAKD [RAD51]			5.38 ± 0.16	5.34 ± 0.14
VGGYFVDKFVATMYHYLQFAYYKL [P3H4]	3.67 ± 0.73	2.56 ± 0.048		
MRPWTGSWRWIMLILFAWGTLLFY [FUT8]	3.24 ± 0.16	3 ± 0.092		
DQAGGEGKHITVFKTYISPWERAM [MYOZ1]	2.91 ± 0.27	2.84 ± 0.39		
GNQESKLIILASGGPQALVNIMRT [CTNNB1]	2.21 ± 0.57	2.26 ± 0.69		
FRENGRNCKRERDARVKRKLRGPE [TBX6]	3.92 ± 0.3	4.05 ± 0.22		
SSRIEQGEWGGRHPSWPWTRCLRM	2.5 ± 0.19	2.67 ± 0.38		
TKPLAIHPCGDKNCPAHWLAQDWE [ADAMTSL2]	2.73 ± 0.79	2.73 ± 0.12		
ENCERREAFWAEWKDLTLSTRPEE [TCAP]	4.53 ± 0.097	4.68 ± 0.2		
RRSIRYGREVELKPYIAAHFDVLP [PTPRD]	2.5 ± 0.41	2.46 ± 0.43		
ECQLTHSHPACPLEFAYYFRPGHL [ZSWIM9]	2.57 ± 0.036	2.59 ± 0.47		
